Reference: patent publication US11376333B2, “mTG substrates for covalent conjugation of compounds” (COVALAB, priority 2013, dated 2022)

Tests used:
[1] = molecular target: T1, microbial transglutaminase (mTG) (Streptomyces mobaraensis, UniProt P81453); assay: mTG-mediated incorporation of biotin-X-cadaverine into peptides coupled on Covabtest plate; format: biochemical; conditions: 15 nmoles peptide coupled to plate, biot-cad 0.1 mg/ml, mTG 10 ng/well
T1 construct: purchased Covalab, France opr 0054
T1 sequence (P81453 77-407): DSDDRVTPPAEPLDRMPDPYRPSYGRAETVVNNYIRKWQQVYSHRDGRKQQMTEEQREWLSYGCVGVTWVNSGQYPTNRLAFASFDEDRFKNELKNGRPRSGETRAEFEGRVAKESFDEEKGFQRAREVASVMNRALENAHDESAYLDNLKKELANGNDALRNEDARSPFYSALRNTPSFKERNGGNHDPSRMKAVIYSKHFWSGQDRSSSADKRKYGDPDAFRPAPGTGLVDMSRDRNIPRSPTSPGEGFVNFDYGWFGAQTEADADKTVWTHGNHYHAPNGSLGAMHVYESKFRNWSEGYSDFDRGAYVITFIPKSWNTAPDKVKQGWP
Method: The coupling method was previously described by the Applicant (V. Thomas et al, 2004) and also in the corresponding data sheet of CovAbtest-Plate™ which is commercially available from Covalab (Ref #opr0004). Briefly, in separate tubes a solution mixture containing 150 μM of each peptide dissolved in 10 mM phosphate buffer pH5, 5 mM EDAC and 5 mM NHS was incubated for 30 min under gentle shaking. The resulting activated NHS-carboxyl C-terminal moiety of each peptide (15 nmoles) was used to be conjugated in each well of CovAbtest-Plate™ previously deprotonated during 15 min with 150 μl 0.6% sodium bicarbonate per well. The microtiter plate was then incubated during 2 hrs at room temperature and washed extensively with Tris Buffer Saline.
For this experiment we used the same procedures described by V Thomas et all (2004) and also in the Covalab's commercialized kit (opr0033). Briefly the Lyophilized transglutaminase was reconstituted in 40 mM tris buffer pH 8 and 50 μl of each mTG at 200 ng/ml and at 40 ng/ml were added in the wells containing 50 μl of biotin-X-cadaverine. The enzymatic mixture was incubated for 15 min at room temperature under gentle shaking. Then the plates were washed 3 times with TBS-Tween20 followed by the addition of 100 μl of diluted HRP labeled streptavidine ( 1/2000 in TBS Tween20, 0.5% BSA) in each well. After 30 min at room temperature and 3 washings in TBS-Tween20, 100 μL of TMB substrate were added and after 5 min the colour development was stopped using 100 μl of 0.5 M sulfuric acid. Absorbances at 450 nm were measured using a microplate reader (Multiskan, Labsystems, Helsinki, Finland).
To screen the peptide library (Covalab) and identify the putative new substrates of mTG we used Covabtest-peptide (described in B-I-1) in which the peptides were covalently coupled into the plates and the amine substrate Biotin-cadeverine (biot-cad) was free in solution. In this experiment 15 nmoles of each peptide (table 2) were covalently conjugated to microtiter plate and the incorporation of biot-cad (0.1 mg/ml) catalyzed by mTG (10 ng/well) was determined following the experiment described in B-II-1. Among all the peptides tested only few peptides were recognized by mTG as Gln (Q) donor to incorporate biot-cad as shown in the FIG. 1. The enzymatic activity was different between the peptide substrates. […] When Q is replaced by N (peptide HH12N11) no reactivity of the mTG was observed confirming the specificity of the enzyme to Gln donor. Moreover, if the reactivity of the 4 peptides (HH12Q11, DH6Q7, HG14Q11 and WG10Q7) is compared, it can be observed that the reactivity of the Gln depends on its position in the peptide sequence. In the most reactive peptides Q is located at the C-terminal. […]

[2] = molecular target: T1, microbial transglutaminase (mTG); assay: Colorimetric assay: mTG incorporation of biotinylated peptides into immobilized spermine, apparent Km; format: biochemical; conditions: biotinylated peptides, spermine plate
Excerpt: To produce the Covabtest-spm plate, the procedure previously described in Mily et al (2009) was used.
For the screening of the peptide listed in table 2 (Biotinylated peptides) the inventors used our colorimetric assay to measure transglutaminase 2 (TG2) cross linking activity (Mily et al, 2009) and commercialized under ref opr0033 in which mTG was used instead of TG2 and described in this experience. The principle of the method is based on the transamidation activity of mTG, using covalently coupled spermine to carboxy-substituted polystyrene plates and biotinylated peptides. The assay consists of the incorporation of the glutamine gamma-carboxamide group into the immobilized spermine. The amount of biotinylated peptide bound to the plate, as measured by the activity of streptavidin-peroxidase, is directly proportional to the TG activity. Absorbance was measured at 450 nm using the microplate reader.
In order to compare the affinity of mTG to the preferred substrate, the peptides were used at different concentrations ranging from 160, 80, 40, 20, 10, 5, 2.5 and 0 μM. Then the apparent Km were determined for each peptide and were calculated by Lineweaver-Burk method (1/Absorbance=f(1/[mTG (μM)]).
In this experiment, spermine was conjugated into the plate as described in B-II-4. Biotinylated peptides described in table 3 were incubated with mTG at different concentration (160, 80, 40, 20, 10, 5, 2.5 and 0 μM). […] Even if E seems to abolish the reactivity of the peptides this cannot be due to the negative charge only but also to the nature of the amino acides at the position X+1, X+2 and X+3. […] This is confirmed with LN-11Q8Q10 peptide.

Q: Which “reactivity as Gln donor for mTG incorporation of biot-cad” value [1] does the source give for HDLMWPDVYSQH (Peptide HH12Q11) here?
A: good substrate for mTG

Q: What about the “reactivity of peptide with mTG (text on Table 3)” value [2] of the same sequence?
A: highly reactive with mTG
